Assay [1] concerns the target Ran wild type, Ran-[γ-32P]GTP (UniProt P62826).
In assay [2] the target is Human CRM1 (recombinant, untagged) (human, UniProt O14980 1-1071).
Human CRM1 (recombinant, untagged) (human, UniProt O14980 1-1071), sequence (O14980 whole entry): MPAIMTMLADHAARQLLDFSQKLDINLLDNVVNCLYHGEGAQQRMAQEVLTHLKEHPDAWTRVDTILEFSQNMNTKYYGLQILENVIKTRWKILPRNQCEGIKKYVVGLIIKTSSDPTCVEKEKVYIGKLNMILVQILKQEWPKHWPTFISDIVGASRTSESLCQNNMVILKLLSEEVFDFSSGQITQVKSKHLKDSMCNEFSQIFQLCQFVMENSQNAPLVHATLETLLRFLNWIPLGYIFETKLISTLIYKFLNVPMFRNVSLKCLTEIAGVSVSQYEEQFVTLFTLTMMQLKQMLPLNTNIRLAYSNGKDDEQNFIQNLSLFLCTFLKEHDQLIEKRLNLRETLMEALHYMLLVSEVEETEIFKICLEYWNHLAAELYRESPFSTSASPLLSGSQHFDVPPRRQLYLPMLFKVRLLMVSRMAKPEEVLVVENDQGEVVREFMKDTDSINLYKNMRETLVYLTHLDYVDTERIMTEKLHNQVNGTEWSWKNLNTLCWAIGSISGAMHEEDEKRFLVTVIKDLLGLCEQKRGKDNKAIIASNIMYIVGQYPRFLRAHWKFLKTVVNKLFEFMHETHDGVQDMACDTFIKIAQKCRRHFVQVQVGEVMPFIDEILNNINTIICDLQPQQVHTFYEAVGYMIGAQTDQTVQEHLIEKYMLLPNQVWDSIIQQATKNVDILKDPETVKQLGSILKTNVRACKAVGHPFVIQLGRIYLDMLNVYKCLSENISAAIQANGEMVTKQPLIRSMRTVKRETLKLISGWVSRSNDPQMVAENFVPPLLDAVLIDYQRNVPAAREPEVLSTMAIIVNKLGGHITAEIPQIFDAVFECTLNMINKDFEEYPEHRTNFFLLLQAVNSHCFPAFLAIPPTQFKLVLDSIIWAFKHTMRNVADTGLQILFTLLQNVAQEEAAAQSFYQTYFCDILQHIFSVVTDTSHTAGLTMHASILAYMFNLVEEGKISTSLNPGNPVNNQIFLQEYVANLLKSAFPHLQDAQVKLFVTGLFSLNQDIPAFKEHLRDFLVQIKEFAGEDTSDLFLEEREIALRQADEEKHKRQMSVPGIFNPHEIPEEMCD

For orientation: Kd means the concentration at which binding is half-saturated. In assay [1], “Human CRM1 (recombinant, untagged) (from UniProt O14980 1-1071) (natural protein; other documents disagree on this pair)” had a Kd above 1 µM.

For the molecule CPVPLQLPPLERLTLD [Rev-NES peptide 2], the Kd in assay [2] was around 7 µM.

B1: HIV Rev protein (natural protein)
chain: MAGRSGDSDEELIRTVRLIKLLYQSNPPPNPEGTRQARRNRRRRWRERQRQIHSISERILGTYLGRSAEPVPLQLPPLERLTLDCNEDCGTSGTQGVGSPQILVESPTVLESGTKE
In the case of B1, the Kd in assay [2] is around 0.5 µM.

As for CLPPLERLTL [Rev-NES peptide 1], the Kd in assay [2] was around 50 µM.

Values taken from article PMC2133107 (The Journal of Cell Biology, 1999).
